According to patent publication US20150148520A1 (INDIANA UNIVERSITY RESEARCH AND TECHNOLOGY, published 2015):
Bridges are numbered along the chain shown (N, C = ends). Roman numbers before positions name the chains, in order. Where no end group is shown, it is not given here. [ ]: non-standard residue; d: D form. Phe(4-NH2) = Nc1ccc(C[C@H](N)C(=O)O)cc1

B1: IGF-1 A (H8 A9 N21): B (H5D10Y16L17 A22) DPI A-COOH (ligand)
chain 1: GIVDECCHASCDLRRLEMYCN-OH
chain 2: GPEHLCGADLVDALYLVCGDAGFY
modifications: not fully specified (C-terminus); ends and bridges not checked
B2: IGF-1 A: IGF-1 B (1-8)-In (9-17)-IGF-1 B (18-30) (ligand)
chain 1: GIVDECCFRSCDLRRLEMYCA-NH2
chain 2: GPETLCGSHLVEALYLVCGDRGFYFNKPT-NH2
modifications: disulfide I:6-I:11, I:20-II:18, I:7-II:6; ends not checked
B3: IGF-1 A: B (H5D10Y16L17) DPI (ligand)
chain 1: GIVDECCFRSCDLRRLEMYCA-NH2
chain 2: GPEHLCGADLVDALYLVCGDRGFY-NH2
modifications: disulfide I:6-I:11, I:20-II:18, I:7-II:6; ends not checked
B4: IGF1 A:B(Y^B16L^B17)(p-NH2-F)^A19amide (ligand)
chain 1: GIVDECCFRSCDLRRLEM[Phe(4-NH2)]CA
chain 2: GPETLCGAELVDALYLVCGDRGFYFNKPT-NH2
modifications: disulfide (positions not given here); not fully specified (bridges); also: C-terminal amide, chain not given here
B5: IGF-1 A: B (E10Y16L17) DPI (ligand)
A chain: GIVDECCFRSCDLRRLEMYCA-NH2
B chain: GPETLCGAELVDALYLVCGDRGFY-NH2
modifications: disulfide I:6-I:11, I:20-II:18, I:7-II:6; not fully specified
B6: IGF-1 A: B (D10Y16L17) DPI A-COOH (ligand)
chain 1: GIVDECCFRSCDLRRLEMYCA-OH
chain 2: GPETLCGADLVDALYLVCGDRGFY-NH2
modifications: disulfide I:6-I:11, I:20-II:18, I:7-II:6; ends not checked
B7: IGF-1 A: B (E10Y16L17)-E31E32 B-COOH (ligand)
chain 1: GIVDECCFRSCDLRRLEMYCA-NH2
chain 2: GPETLCGAELVDALYLVCGDRGFYFNKPTEE-OH
modifications: disulfide I:6-I:11, I:20-II:18, I:7-II:6; ends not checked
B8: IGF-1 A (H8 A9 N21): B(H5D10Y16L17) DPI A-COOH (ligand)
chain 1: GIVDECCHASCDLRRLEMYCN-OH
chain 2: GPEHLCGADLVDALYLVCGDRGFY-NH2
modifications: disulfide I:6-I:11, I:20-II:18, I:7-II:6; ends not checked
B9: IGF-1 A: In (1-17)-IGF-1 B (18-30) (ligand)
chain 1: GIVDECCFRSCDLRRLEMYCA-NH2
chain 2: FVNQHLCGSHLVEALYLVCGDRGFYFNKPT-NH2
modifications: disulfide I:6-I:11, I:20-II:19, I:7-II:7; ends not checked
B10: IGF-1 A: In B (1-5)-IGF-1 B (YL) (6-30) (ligand)
A chain: GIVDECCFRSCDLRRLEMYCA-NH2
B chain: FVNQHLCGAELVDALYLVCGDRGFYFNKPT-NH2
modifications: disulfide I:6-I:11, I:20-II:19, I:7-II:7; not fully specified

Key:
human IGF-1 receptor [1] = biological target: T1, human IGF-1 receptor (human, UniProt P08069 31-1367); experiment: cell-based or functional assay
human IGF-1 receptor [2] = biological target: T1, human IGF-1 receptor; experiment: SPA competition, [125I]-IGF-1, IGF-1R membranes
Description: (§1) Non-specifically bound (NSB) radioactivity was measured in the wells with a four-fold concentration excess of “cold” native ligand than the highest concentration in test samples. Total bound radioactivity was detected in the wells with no competitor. Percent specific binding was calculated as following: % Specific Binding=(Bound-NSB/Total bound-NSB)×100. IC50 values were determined by using Origin software (OriginLab, Northampton, Mass.).

human insulin receptor [3] = biological target: T2, human insulin receptor (human, UniProt P06213 28-1382); experiment: SPA competition, [125I]-insulin, IR membranes
T2 construct: whole, on cells; Phosphorylation assay: receptor transfected HEK293 cells; also called Insulin
Description: as §1

human insulin receptor [4] = biological target: T2, human insulin receptor; experiment: cell-based or functional assay

Binder	% IGF (human IGF-1 receptor [1]) [%]	activity (0.55 nM) (human IGF-1 receptor [2]) [%]	further results
B1	7.7	2.4	% IGF-1 (in test) (human IGF-1 receptor [2]): 2.3%; IC50 (human IGF-1 receptor [2]): 22.8 nM
B2	–	0.4	–
B3	7.1	11.8	–
B4	–	–	IC50 (human insulin receptor [3]): 1.08 nM
B5	–	2.4	–
B6	112	8.1	% Insulin (human insulin receptor [4]): 1580%
B7	–	3.1	–
B8	181	13.6	–
B9	–	0.9	–
B10	–	2	–
